# Patent publication US20210079089A1 (SURROZEN OPERATING, published 2021)
# T1: LRP6e1e2 (UniProt O75581 20-630, limits assumed, C-terminally biotinylated)
# T1 construct: domain: E1E2; also called LRP6 E1E2 domains
# T1 sequence (looked up): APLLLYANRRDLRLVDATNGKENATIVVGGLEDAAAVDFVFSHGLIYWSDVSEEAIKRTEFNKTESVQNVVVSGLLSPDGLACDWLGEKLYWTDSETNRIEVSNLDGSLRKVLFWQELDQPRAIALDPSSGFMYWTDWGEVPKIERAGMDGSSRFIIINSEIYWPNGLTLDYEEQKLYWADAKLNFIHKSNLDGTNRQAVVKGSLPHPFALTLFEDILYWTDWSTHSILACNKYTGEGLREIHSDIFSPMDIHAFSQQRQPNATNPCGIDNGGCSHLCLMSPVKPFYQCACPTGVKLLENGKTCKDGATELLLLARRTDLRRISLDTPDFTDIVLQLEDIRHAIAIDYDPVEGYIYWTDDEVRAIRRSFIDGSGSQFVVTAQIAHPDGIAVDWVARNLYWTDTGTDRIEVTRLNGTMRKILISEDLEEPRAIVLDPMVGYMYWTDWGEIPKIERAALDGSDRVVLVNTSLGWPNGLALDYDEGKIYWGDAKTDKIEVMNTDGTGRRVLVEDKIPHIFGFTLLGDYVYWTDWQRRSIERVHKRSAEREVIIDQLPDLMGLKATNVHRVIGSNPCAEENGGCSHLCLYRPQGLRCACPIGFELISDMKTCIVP
# T2: LRP6E3E4_O75581_631-1246 (Homo sapiens (Human), UniProt O75581 631-1246, biotinylated in the BLI/SPR assays (C-terminal biotin acceptor peptide))
# T2 construct: The entry holds residues 631-1246 of UniProt O75581 followed by a biotin acceptor peptide and eight His
# T2 sequence: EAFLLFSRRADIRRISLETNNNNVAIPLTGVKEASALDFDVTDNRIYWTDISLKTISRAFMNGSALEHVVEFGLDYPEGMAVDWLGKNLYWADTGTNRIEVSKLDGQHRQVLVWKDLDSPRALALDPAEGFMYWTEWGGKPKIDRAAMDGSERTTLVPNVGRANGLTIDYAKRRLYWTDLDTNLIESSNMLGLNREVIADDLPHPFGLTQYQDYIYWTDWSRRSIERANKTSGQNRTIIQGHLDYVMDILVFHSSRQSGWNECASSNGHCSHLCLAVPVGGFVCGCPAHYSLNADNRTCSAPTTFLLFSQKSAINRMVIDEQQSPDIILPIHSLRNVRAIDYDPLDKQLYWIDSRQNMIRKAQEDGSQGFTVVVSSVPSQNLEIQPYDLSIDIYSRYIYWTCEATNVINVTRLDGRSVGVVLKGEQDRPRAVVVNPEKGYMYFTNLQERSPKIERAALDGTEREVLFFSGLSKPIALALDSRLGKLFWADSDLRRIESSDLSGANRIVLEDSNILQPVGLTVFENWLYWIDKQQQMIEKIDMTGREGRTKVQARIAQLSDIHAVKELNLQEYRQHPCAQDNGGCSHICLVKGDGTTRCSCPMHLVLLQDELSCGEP
# Key:
# LRP6e1e2 [1] = target: T1, LRP6e1e2; test: Octet BLI or BIAcore SPR
# LRP6e1e2 [2] = target: T1, LRP6e1e2; test: Octet BLI, affinity class
# Experimental: (§1) Binding kinetics of antibody fragments to LRP5 extracellular domain (LRP5 ECD) and/or LRP6 extracellular domain (LRP6 ECD) protein targets was determined by bio-layer interferometry (BLI) using Octet Red 96 (PALL ForteBio, Fremont, Calif.) instruments at 30° C., 1000 rpm with streptavidin (SA) biosensors. C-terminal biotinylated LRP ECD recombinant protein was diluted to 20 nM in the running buffer (PBS, 0.05% Tween-20, 0.5% BSA, pH 7.2) and captured to the SA biosensor until coupling length reached 0.2 nm. Following capture of the LRP5 or LRP6, the SA biosensor with captured biotinylated-LRP5 or biotinylated LRP6 was dipped into wells containing the relevant antibody fragment at […] (0, 1.37, 4.12, 12.4, 37, 111.1, 333.3, 1000 nM) in running buffer, plus a well with only running buffer as a reference channel. KD was determined by global fitting, 1:1 binding model according to manufacturer recommended settings.
# LRP6E3E4_O75581_631-1246 [3] = target: T2, LRP6E3E4_O75581_631-1246; test: Octet BLI
# Experimental: as §1
# LRP6E3E4_O75581_631-1246 [4] = target: T2, LRP6E3E4_O75581_631-1246; test: Octet BLI or BIAcore SPR
# LRP6E3E4_O75581_631-1246 [5] = target: T2, LRP6E3E4_O75581_631-1246; test: Octet BLI, affinity class
# Experimental: as §1
# LRP6e1e2 [6] = target: T1, LRP6e1e2; test: Octet BLI
# Experimental: as §1
Kd (LRP6e1e2 [1]),Kd (LRP6e1e2 [2]),binding result (LRP6E3E4_O75581_631-1246 [3]),Kd (LRP6E3E4_O75581_631-1246 [4]),Kd (LRP6E3E4_O75581_631-1246 [5]),binding result (LRP6e1e2 [6]),Binder
< 500 nM,< 500 nM,no binding,,,,009S-F03 (VHH) VHH: DVQLVESGGGLVQAGGSLRLSCAASGRTFSSYAMSWFRQAPGKEREFVAVIGRSGGIKYYADSVKGRFTISRDNTINTVYLQMNNLTPEDTAIYYCATRRPFNSYNTEQSYDSWGRGTLVTVSS
< 500 nM,< 500 nM,no binding,,,,009S-G02 (VHH) VHH: AVQLVESGGGLVQAGGSLRLSCGVSGSIFSIYAMGWYRQAPGKERELVAVITSGGKTVYADSVKGRFTITEDAAKNTVYLQMNSLKAEDTAVYYCYADSRSSWYDEYLEHWGRGTLVTVSS
,,,< 500 nM,< 500 nM,no binding,013S-D05 (HC SEQ ID NO 18) (VHH) VHH: QVKLEESGGGLVQAGGSLRLSCAASGRIFSIYDMGWFRQAPGKEREFVSGIRWSGGTSYADSVKGRFTISKDNAKNTIYLQMNNLKAEDTAVYYCGSRGYWGQGTLVTVSS
< 500 nM,< 500 nM,no binding,,,,009S-A04 (VHH) VHH: AVQLVESGGGLVQAGGSLRLSCAASGRTLSAYDMGWFRQAPGKERELVGGIRWSGGTTLYPDSVKGRFTISRDNAKNTVYLQMNSLKPEDSAVYYCYARTVIGGFGAFRAHWGQGTQVTVSS
,,,< 500 nM,< 500 nM,no binding,013S-C05 (HC SEQ ID NO 17) (VHH) VHH: EVQLVESGGGLVQPGGSLRLSCAVSRNIFPIDDMSWYRQAPGKQRELVATVTSGGRINYADSVKGRFTISRDGARRTIDLQMNNLKPEDTAVYYCNVDRTLYGKYKEYWGQGTLVTVSS
< 500 nM,< 500 nM,no binding,,,,009S-D03 (VHH) VHH: DVQLVESGGGLVQPGGSLRLSCAAPGSIFSDGAMGWYRQAPGKQRELVAVISGGRTGYADFVKGRFTISRDNGKNTVNLQMNRLEPEDTAVYFCNTYPFPIYKKGYPFWGQGTQVTVSS
